Reference: the nanobody polyreactivity screen of Harvey et al. (2022)

Assay: yeast display, Sf9 membrane polyspecificity reagent, FACS + sequencing; frameworks hold sequencing errors
Method in brief: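 In a synthetic yeast display library (Saccharomyces cerevisiae BJ5465), nanobody expression was induced with galactose for 36–48 hours. FACS gates were set low and high (top ~1%) using anti-HA fluorescence for expression and streptavidin fluorescence for binding of the Sf9 membrane reagent. Each polyreactivity label is drawn from the gate of origin.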

Row | Sequence | polyreactivity (PSR sort gate)
1 | QVQLVESGGGLVQPGGSLRLSCAASGSIDCYGMGWYRQAPGKERELVAIITSVYSTYYADSVKGRFKISRDNAKNTVYLQMNSLKPEDTAVYYCAATAAYFYGQFYYWGQGTQVTVSS | high polyreactivity
2 | QVQLVESGGGLVQPGGSLRLSCAASGSIFLRYAMGWYRQAPGKERELVAGITSGGSTNYADSVKGRFTISRDNAKNTVYLQMNSLKPEDTAVYYCNKDLPDWGQGTQVTVSS | low polyreactivity
3 | QVQLVESGGGLVQPGGSLRLSCAASGSIFYCNAMGSYRQAPGKEREFVAGITTSGGSTYYADSVKGRFTISRDNAKNTVYLQMNSLKPDDTAVYYCNKVWVYAVTPSSWYKYGSWGQGNQVTVSS | low polyreactivity
4 | QVQLVESGGGLVQPGGSLRLSCAASGSIVKSYAMGWYRQAPGKERELVAAITWRSGRTYYADSVKGRFTISRDNAKNTVYLQMNSLKPEDTAVYYCAADDTSYYIYSYDYWGQGTQVTVSS | low polyreactivity
5 | QVQLVESGGGLVQPGGSLRLSCAAYRSTFTDYDKGWYRQAPGKERELVAAITSGGSTNYADSVKGRFTISRDNAKNTFYLQLNSLKPEDTAVYYCAAADSDRKYDYWGQGTQVTVSS | low polyreactivity
6 | QVQLVESGGGLVQPGGSLRLSCSASGSIFRVYGMGWYRQAPGKERELVAAITWSGGSTYYADSVKGRFSISRDKAKNTVYLQQNSLKPEDTAVYYCAARARPRYYRPPYDYWGQGTQVTVSS | high polyreactivity
7 | QVQLVESGGGLVQPGGSLRLSGAASGRILTYYAMGWYRQAPGKERELFAAISWRAGSTYYADSVKGRFTISRDNAKNTVYLQMNSLKPEDTAVYYCAAKPYYIPTRTYSHYNYWGQGTLVTVSS | high polyreactivity
8 | QVQLVESGGGLVQSGGILLLSCAASGITFGRNAMGWYRQAPGKEGELVAAISRGGSTNYADSVKGRFTISRDNAKNTVYLQMNRLKPEDTAVYYCATAYRGRAWGYDYWGQGTQVTVSS | high polyreactivity
9 | QVQLVESGGGLVQSGGSLRLSCAACGGTFYRYAMGWYRQAPGKERELVAAITSGSSTYYADSVKGRFTISRDNAKNTVYLQMNSLTPEDTAVYYCAAARYSRLSRTRPGKYGYWGQGTQVTVST | low polyreactivity
10 | QVQLVESGGGLVQSGGSLRLSCAASGFSFRYYAMGWYRQAPGKERELVAAITQSGGTTYYADSVKGRFTISRDNAKNTVYLQMNSLKPEDTAVYYCNGYGYGFTGKGDYWGQGTQVTVSS | high polyreactivity
11 | QVQLVESGGGLVQSGGSLRLSCAASGFTFYRYTMGWYRQAPGKERELVAISSDGSTNYADSVKGRFTISRDNAKNTVYLQMNSLKPEDTAVYYCNAVYYNWIGFDYWGQGTQVTVSS | low polyreactivity
12 | QVQLVESGGGLVQSGGSLRLSCAASGGIFGINAMGWYRQAPGKEREFVAAITASGGTTYYADSVKGRFTISRDNAKNTVYLQMNRLKPEDTAVYYCAKRYRSYDYVWYEYWGQGTQVTVSS | high polyreactivity
13 | QVQLVESGGGLVQSGGSLRLSCAASGINFLYYAMGWYIQAPGKERELVARINRSGGSTYYADSVKGRFTISRDNAKYTVYLQMNSLKPEDSAVYYCAADYLYRSPAYEHYYWGQGTQVTVSS | high polyreactivity
14 | QVQLVESGGGLVQSGGSLRLSCAASGITFFFNAMGWYRQAPGKERELVAPITSGGGSTYYADSVKGRFTISRENAKNTVYLQMNSLKPEDTAVYYCAAEWSYGGMDYWGQGTQVTVSS | low polyreactivity
15 | QVQLVESGGGLVQSGGSLRLSCAASGRIFDENAMGWYRQAPGKERELVAAITGGDSTNYADSVKGRFTISRDNAKNTVYLQMNSLKPEDTAVYYCAVDVIYYWAEDYDYWGQGTQVTVSS | low polyreactivity
16 | QVQLVESGGGLVQSGGSLRLSCAASGRIFSYYTIGWYRHEPGKEREIVAAITWSGGSTYYADSVKGRFTISRDNAKNTVFLQLNRLKPEDTAVYYCNRVAPHDLRNRQEDNYWGQGTQVTVSS | low polyreactivity
17 | QVQLVESGGGLVQSGGSLRLSCAASGRIFWYNAMRWYSQAPGKDRELVARITRGTRTYYADSVKGRFTISRDNAKNTVYLQMNSLKPEDTAVYYCRLQFSYTPHYDYWGQGTQVTVSS | high polyreactivity
